Data taken from the supplement of paper PMC12455559.
± gives the standard deviation of the averaged measurements.

Tests used:
[1] = melting temperature (DSF); higher = more thermostable
Method: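 Candidate PET hydrolases were expressed in E. coli C41(DE3) in 2 mL autoinduction cultures in 24-deep-well plates, Ni-bead purified and released by SUMO protease cleavage on an OT-2 robot. Yield per well was measured by BCA; values below 25 ug (0.1 mg/mL) are below the detection threshold. Melting temperature was measured by differential scanning fluorimetry with Sypro Orange, ramping from 25 C at 0.3 C/step.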

[2] = purified protein yield per well (BCA); higher = higher soluble expression
Outline: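 Candidate enzymes were expressed in E. coli C41(DE3) in 2 mL autoinduction cultures with 100 µg/mL kanamycin, at 37 °C for 2 h and then 18 °C for 40 h. Cells were lysed, and protein was bound to Ni-charged magnetic beads and released by SUMO protease cleavage on an OT-2 robot. The read-out is purified protein yield per well, measured with the Pierce Rapid Gold BCA kit. Values below 25 ug (0.1 mg/mL) are below the detection threshold.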

[3] = PET hydrolysis, aromatic products released after 48 h (umol product/mg enzyme); higher = more PET depolymerization activity
Method: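 HTP-purified, SUMO-cleaved, tagless PET hydrolase candidates (5 ug, 1.43 mg/g PET) were incubated 48 h without shaking with 3.5 mg amorphous PET film (aFilm) or crystalline PET powder (cryPow) in 0.5 mL buffer: NaCitrate pH 4.5/5.5, NaPhosphate pH 6.5/7.5, glycine pH 8.5. Incubation was at 40 or 60 C. Aromatic products (TPA, MHET, BHET) in the supernatant were quantified by UV absorbance at 260/280 nm relative to buffer blanks and expressed per mg enzyme. LCC-ICCG was the positive control on every plate.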

[4] = substrate: cryPow, 40 °C, pH 5.5
[5] = substrate: cryPow, 40 °C, pH 6.5
[6] = substrate: cryPow, 40 °C, pH 7.5
[7] = substrate: cryPow, 40 °C, pH 8.5
[8] = substrate: cryPow, 60 °C, pH 5.5
[9] = substrate: cryPow, 60 °C, pH 6.5
[10] = substrate: cryPow, 60 °C, pH 7.5
[11] = substrate: cryPow, 60 °C, pH 8.5
[12] = substrate: cryPow, 40 °C, pH 4.5
[13] = substrate: aFilm, 40 °C, pH 4.5
[14] = substrate: aFilm, 40 °C, pH 5.5
[15] = substrate: aFilm, 40 °C, pH 6.5
[16] = substrate: aFilm, 40 °C, pH 7.5
[17] = substrate: aFilm, 60 °C, pH 4.5
[18] = substrate: aFilm, 60 °C, pH 5.5
[19] = substrate: aFilm, 60 °C, pH 6.5
[20] = substrate: aFilm, 60 °C, pH 7.5
[21] = substrate: cryPow, 60 °C, pH 4.5

Row | Sequence | melting temperature [1] [C] | purified protein yield per well [2] [µg] | PET hydrolysis [3, 4] | PET hydrolysis [3, 5] | PET hydrolysis [3, 6] | PET hydrolysis [3, 7] | PET hydrolysis [3, 8] | PET hydrolysis [3, 9] | PET hydrolysis [3, 10] | PET hydrolysis [3, 11] | PET hydrolysis [3, 12] | PET hydrolysis [3, 13] | PET hydrolysis [3, 14] | PET hydrolysis [3, 15] | PET hydrolysis [3, 16] | PET hydrolysis [3, 17] | PET hydrolysis [3, 18] | PET hydrolysis [3, 19] | PET hydrolysis [3, 20] | PET hydrolysis [3, 21] | PET hydrolysis ([3]; substrate: aFilm, 40 °C, pH 8.5) | PET hydrolysis ([3]; substrate: aFilm, 60 °C, pH 8.5)
1 | AANPYQRGPAPTAASVAAVTGPFATASVSVPRGNGFGGGVIYYPTDTSQGTFGGLAISPGLNGTWPGIAWLGSRLASQGFIVFGIETNNLNDSPTSRGTQLLAALDYLAQRSSVRSRLDPGRLAVAGHSMGGGGALDAALRRPSLKAAIGNAPYLPSNTLAGNRVPTLIYAMQNDTLVPPSRLTSLYNTIPATTERAYLEITGAGHNYIGQPSTTLARTMIPWLKIFIDNDTRFSQFLCPLADQSGIRQYRSSCPLVPATTRALTAAAG [DP043] | 67.3 | 92 | 12 | 39 | 96 | 115 | 7 | 62 | 98 | 107 |  |  |  |  |  |  |  |  |  |  |  | 
2 | AASPYERGPDPTEQTITAERGPFQVATATVPANSASGFNRGTIYYPTDTSQGTFGAVAIIPGFIEPESTMSWYGPRLASQGFVVFTLEPFSVLNFPDDRANQLLAALDYLTGSSSVRSRVDASRLAVMGHSMGGGGTLRAAEMRPSLQAAIPLAPWHLHGDWRNVRVPTMIQAADNDFIAGVGNHAQPFYQNLTNAPEKAYLLFENYGHMSWISANTPIAKYSIAWLKRYVDDDTRYSKFLCPAPGAPSSTFQEYRHTCPD [DP044] | 69.4 | 28 | < 3 | < 3 | < 3 | < 3 |  |  |  |  |  |  |  |  |  |  |  |  |  |  |  | 
3 | ADLLSQGRPATASSTEKESTPASAAVDGDTGTRWSSTFGDPQWLQVDLGATATLSRIVLRWEAAYARTFRIQTSDDGTAWTTVHSTTTGAGGVQTLDVNGTGRYVRLHGTQRGTLYGYSLWEFQVYGSGDGTPPDGTIPDPTTASLEAAAGPLPTAAYTVPSPSGYGSGTVTYPTSGGAYPGVVLMPGYQGTQENLRWLAPRLASWGFVVLNVGTTTLLDDPASRGRQISAAGIQLLALGGTSGNPLSGKLDGTLGAVGHSMGGGGVMAALRDDPRFRAGVPTAPYYPNMNFSQVTDPTFFLTCQSDPVAHGNTYAVPWYTTMSRAEKLYVEVPGDHLCPMTGYGDKARQGKWIVSFLSLWLRADTRFGPFLCGPAREADKNNTALVTRWMDTCPF [TEP160] | 68.5 | 31 | < 3 | < 3 | < 3 |  |  |  |  |  | < 3 |  |  |  |  |  |  |  |  |  |  | 
4 | ADLLSQGRPVTASSTENASTPASAAVDGNTGTRWSSAFSDPQWLTVDLGTTATISRVVLRWETAYARRFQIQTSDDGTAWTTIHSATAGTGGVQTLDVTGSGRYVRVHGTQRGTAYGYSLWEFQVYGTRGTTPGEGIPDPSTASLEAAAGPLTTATYTVPDPSGYGSGTVTYPTAGGSYPGVVLMPGYQGTQQNLQWLAPRLASWGFVVLNVGTNTLTDDPASRGRQITAAGTQLLALGAATGNPLSGKVNGTLGAVGHSMGGGGVMAALRDDARFRAGVPTAPYYPNGNFSGVTDPTFFLTCQSDPVAHGNSYALPWYNSMSQSEKLYIEVPGDHLCPMTGSGDKAKQGKWIVSFLSHWLRADTRFTPFLCGPAREADKNDPSLVTRWMDTCPL [TEP036] | 51.4 | 230 | < 3 | < 3 | < 3 |  | < 3 | < 3 | < 3 |  | < 3 | < 3 | < 3 | < 3 | < 3 | < 3 | < 3 | < 3 | < 3 | < 3 |  | 
5 | ADNPFQRGPDPTRASVAAQTGPFANASVSVPTGYGFNGGRIYYPTDTSQGTFGAIAISPGYTALFSAELAWMGPWLASHGFVVIGIETNSRNDFDTARGTQLLAALDYLTQQSPVRDRVDPNRLAVSGHSMGGGGALSAASRRSSLKAAVGITPYSPSSNLANDRVPTMIISGQADTVVTPSYALGLYNSLPATTESVYLEVAGGDHGFMVGRSNPVMIRTMLPFVKMFIDNDTRYSQFLCPLADSSGVVTYRSTCPLLPGAPTTPPTTPPTDSPGSAGEIVGTQSGRCIDVPNAARDNGTRVQLYDCNKQPNQSWTYTSNKQLQVYGDRCLDAAGSGNGAAVQIYSCHSQTNQQWNLNSNGTISNVQSGRCLDVWSTANGAQVQLYDCHGQTNQQFRLASRTR [DP061] | 59.8 | 265 | 14 ± 2.8 | 20 ± 1.4 | 7.5 ± 5 | 2 ± 2.8 | < 3 | < 3 | < 3 | < 3 |  |  | < 3 | < 3 | < 3 |  | < 3 | < 3 | < 3 |  | < 3 | < 3
6 | ADNPFQRGPNPTVASVAATRGTFATAQTSVPAGNGFGGGVIYYPTDTSQGTFGGVAIVPGYSALFANEEAWMGPWLASFGFVVIGIETNSRTDSADARGTQLLAALDYLTQRSSVRDRVDPNRLSVVGHSAGGAGVLSALLRRPSLKAGVGLAPGSPVGNYDLYNDRVPTMFISGQRDTTVTQSYLNGLYSTLPATTPSAWVEITGVDHLFATRANTTEMRVLIPWLKIWVDNDTRYTQFLCPLADSSNISMYRNKCPYVPPGGSSPSPSASPSSSPSPSPSSSPSPSPSPSPSPSPSPSPSPTTSPSPPPPGACSAAYRTVNSWPGGYQGEVTVTAGGSAVNGWTVRWTLGSGQTITQLWNGTLSTSGSAVTVKNASFNGSIPASGSATFGFLATGTPSAPSLSCTSP [ESM007] | 59.2 | 424 | < 3 | < 3 | < 3 |  | < 3 | < 3 | < 3 |  | < 3 |  |  |  |  |  |  |  |  | < 3 |  | 
7 | ADNPFQRGPNPTVASVAATRGTFATAQTSVPAGNGFGGGVVYYPTDTSQGTFGGVAIVPGYSALFADEEAWMGPWLASFGFVVIGIETNSRTDSADARGTELLAALDYLTQRSPVRDRVDPNRLSVVGHSAGGAGVLSALLRRPSLKAGVGLAPGSPVGNYDLYSDRVPTMFISGQRDTTVTQSYLNGLYSTLPATTPSAWVEITGVDHLFATRANTTEMRVLIPWLKIWVDNDTRYTQFLCPLADSTGISMYRDKCPYVPPGGSSPSPSASPSSTPSRSPSPSPSPSPSPSPSPSPSPSPSPSPSASPSLPPPGACVAEYRTMNSWPGGYQAMVTVTAGGTAVNGWTVRWTLGGGQTISQLWNGTLSTSGSAVTVKNASYNGSIPASGSATFGFLATGTPSTPSLTCTSP [ESM036] | 49.6 | 376 | < 3 | < 3 | < 3 |  | < 3 | < 3 | < 3 |  | < 3 | < 3 | < 3 | < 3 | < 3 | < 3 | < 3 | < 3 | < 3 | < 3 |  | 
8 | ADNPFQRGPNPTVESVAATRGTFATAQTSVPAGNGFGGGVVYYPTDTSQGTFGGVAIVPGYSALFADEEAWMGPWLASFGFVVIGIETNSRTDSADARGTQLLAALDYLTQRSPVRDRVDPNRLSVVGHSAGGAGVLSALLRRPSLKAGVGLAPGSPVGNYDLYDDRVPTMFISGQRDTTVTRSYLNGLYGTLPATTPSAWVEITGVDHLFATRANTTEMRVLIPWLKIWVDDDTRYTRFLCPLADSTGISMYRDTCPYVPPGGSSPSPSASPSPSPSPSPSPSPSPSPSPSPSPSPSPSPSASPSASPSPPPPGACAAEYHTVNSWPGGYQASVTVTAGASAVQGWTVRWTLGSGQSITQLWNGTLSTSGSAVTVKNASYNGTIPASGSATFGFLATGTPSAPPLTCTSP [ESM067] | 57.1 | 447 | < 3 | < 3 | < 3 |  | < 3 | < 3 | < 3 |  | < 3 | < 3 | < 3 | < 3 | < 3 | < 3 | < 3 | < 3 | < 3 | < 3 |  | 
9 | ADNPHQRGPNPTQASITANRGTFATAETSVGGGNGFGAAKIYYPTDTSQGTFGAIAVVPGYTATWAAEGAWMGHWLASFGFVVIGIDTLNRNDFDVARGTQLLAALDYLTQRSSVRTRVDPNRLAVMGHSMGGGGTISAALRWPTLKAAIGLAPYSPSQTTSGLQVPTMLLAGQNDGTSTPASIISLYNNIPASTEKSYLELAGAGHGFPTSNNSVMTRKVIPWMKIFIDQDARYTQFLCPLQDWTGIRSYRSSCPLLPGATFSLAGSASGKCVDVPGRVQTNGTGLIIWTCNGAVNQQWTRTAAGELRIYDNAKCMDANASGPGTRVTINSCNGGNSQKWTVNANGTVTNAASGRCIDTGGTADNAPVVVNTCTGGTSQT [ESM163] | 58 | 96.4 | < 3 | < 3 | < 3 |  | < 3 | < 3 | < 3 |  | < 3 |  |  |  |  |  |  |  |  | < 3 |  | 
10 | ADNPHQRGPNPTQASVAASRGTFATSETSVGGGNGFGGAKIYYPTDTSQGKFAALAVSPGYTATWAAEGAWMGHWLASFGFVIIGIDTISRTDWDVARGDQLLAALDYLTQRSSVRDRVDASRVGVMGHSMGGGGAISAGLKRPSLKVVIGNAPYSASQNLTNMRVPVALLAGQRDTTVTPATTNSYYNQVPATTEKMYLELTNAPHSFPTSNNSVMTRKVIPWMKIFLDQDTRYQQFLCPLLDNTGIRTYRSSCPLIGDPMPPADTYRLAGAASGKCADVEGRSQANGAKLLLWTCNGQTNQRWTQTATGELRVYDNPKCVEAGTSAQGTRVTINACNGGNSQKWTVNANGTVTNAVSGRCLDAAGTADNSPIVVNTCTGAGSQNWSKRS [TEP049] | 50.8 | 68.7 | < 3 | < 3 | < 3 |  | < 3 | < 3 | < 3 |  | < 3 |  |  |  |  |  |  |  |  | < 3 |  | 
